The text below walks through data of PMC12125310.

Common to all, as to experiment: EMSA
Data set [1] has as its target T1, DOF6 (Col-0);RGL2 (Col) (Arabidopsis thaliana …, UniProt Q9M1E6;Q8GXW1 1-245;1-547, |).
T1 sequence 1: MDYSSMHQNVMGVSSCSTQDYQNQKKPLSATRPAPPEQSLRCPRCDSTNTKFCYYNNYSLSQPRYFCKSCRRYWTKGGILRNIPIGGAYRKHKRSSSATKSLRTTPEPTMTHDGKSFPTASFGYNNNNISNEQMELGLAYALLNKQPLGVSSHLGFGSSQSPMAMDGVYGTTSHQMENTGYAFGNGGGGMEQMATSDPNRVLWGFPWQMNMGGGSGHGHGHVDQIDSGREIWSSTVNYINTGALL
T1 sequence 2: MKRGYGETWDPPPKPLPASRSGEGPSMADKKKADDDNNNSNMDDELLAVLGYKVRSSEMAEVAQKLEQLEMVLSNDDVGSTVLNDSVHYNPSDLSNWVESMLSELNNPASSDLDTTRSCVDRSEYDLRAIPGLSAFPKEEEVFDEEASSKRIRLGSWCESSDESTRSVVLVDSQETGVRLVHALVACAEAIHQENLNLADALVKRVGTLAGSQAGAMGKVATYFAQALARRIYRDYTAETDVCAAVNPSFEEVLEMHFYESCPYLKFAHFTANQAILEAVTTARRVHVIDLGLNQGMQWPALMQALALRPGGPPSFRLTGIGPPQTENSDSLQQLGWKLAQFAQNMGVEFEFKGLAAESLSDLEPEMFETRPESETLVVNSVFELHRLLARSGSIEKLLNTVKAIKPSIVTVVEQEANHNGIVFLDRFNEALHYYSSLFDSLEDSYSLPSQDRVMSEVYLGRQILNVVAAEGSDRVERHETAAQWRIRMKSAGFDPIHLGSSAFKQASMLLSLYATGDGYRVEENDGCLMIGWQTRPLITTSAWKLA

Data set [2] has as its target T2, RGL2 (Col) (Arabidopsis thaliana (Col-0), UniProt Q8GXW1 1-547).
T2 sequence: T1 sequence 2

The target of data set [3] is T3, DOF6 (Col-0) (Arabidopsis thaliana (Col-0), UniProt Q9M1E6 1-245).
T3 sequence: T1 sequence 1

The target in data set [4] is T1, DOF6 (Col-0);RGL2 (Col). The source holds these as a separate data set.

Read-outs that look alike come from different tables or passages of the source.

B1: GA20ox3 Col probe (P8) (dsDNA)
DNA 1: TAAAAAATAAAAATGAAAAGTATCATGATA
DNA 2: TATCATGATACTTTTCATTTTTATTTTTTA
As for B1, the binding result in data set [1] was “binds”; in data set [2], “no binding”; in data set [3] it was “binds”.

B2: GA20ox3 Tib probe (dsDNA)
DNA 1: TTTAAAAATAAAATAAAAAGTATCATGATA
DNA 2: TATCATGATACTTTTTATTTTATTTTTAAA
For B2, the binding result in data set [4] and in data set [3] was “binds” each time.
